The test deals with SARS-CoV S 2P ectodomain (SARS-CoV (Tor2 strain)) (UniProt P59594). Kind of test: cryo-EM structure.

As usually defined, the stoichiometry N is a count of units in the complex or per binding partner. “SARS-CoV S 2P ectodomain (from UniProt P59594 14-1190) (domain or fragment)” yielded a stoichiometry N of 3.

Values taken from doi:10.1101/292672.
